# From US20140087995A1 (published 2014)
# Residue numbers refer to the chain shown, from its start. Numbered stars: 1 amine (or outer) side, 2 acyl side, 3 side chain; on linkers, the order of the positions; unused ones are H or OH. Bridge positions count the residues as written; N and C are the ends. * marks the point of attachment. C20 diacid = O=C(O)CCCCCCCCCCCCCCCCCCC(=O)*; γGlu = O=C(O)[C@H](CCC(=O)[*:2])N[*:1]; AEEA = NCCOCCOCC(=O)O
# T1: human calcitonin receptor (human, UniProt P30988 25-474)
# T1 sequence (looked up): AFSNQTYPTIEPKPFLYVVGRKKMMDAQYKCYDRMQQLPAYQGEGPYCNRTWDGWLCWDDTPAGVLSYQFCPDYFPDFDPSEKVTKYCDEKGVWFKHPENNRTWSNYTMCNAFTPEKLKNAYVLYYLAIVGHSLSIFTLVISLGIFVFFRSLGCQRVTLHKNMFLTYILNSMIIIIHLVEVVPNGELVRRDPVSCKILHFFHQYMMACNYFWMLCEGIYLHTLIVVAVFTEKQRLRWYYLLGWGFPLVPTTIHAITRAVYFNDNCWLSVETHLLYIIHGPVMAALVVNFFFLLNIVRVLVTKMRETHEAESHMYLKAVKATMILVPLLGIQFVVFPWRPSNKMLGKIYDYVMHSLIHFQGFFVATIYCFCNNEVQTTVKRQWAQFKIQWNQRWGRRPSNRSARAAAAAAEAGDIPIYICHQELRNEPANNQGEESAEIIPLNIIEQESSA
# T2: human amylin receptor (amylin 3(a) receptor: human calcitonin receptor with RAMP-3) (human, UniProt P30988 25-474; O60896 24-148)
# T2 sequence (looked up) 1: T1 sequence (looked up)
# T2 sequence (looked up) 2: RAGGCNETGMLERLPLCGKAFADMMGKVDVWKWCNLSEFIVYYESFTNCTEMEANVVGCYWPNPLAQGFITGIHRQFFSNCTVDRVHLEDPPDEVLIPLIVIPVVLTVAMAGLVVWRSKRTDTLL
# B1: N^α1-[2-[2-[2-[[2-[2-[2-[[(4S)-4-carboxy-4-(19-carboxynonadecanoylamino)butanoyl]amino]ethoxy]ethoxy]acetyl]amino]ethoxy]ethoxy]acetyl]-[Glu14,Arg17,Pro21,Pro27 … (peptide)
# peptide: {C20 diacid-γGlu-AEEA-AEEA}-KCNTATCATQRLAEFLRHSSPNFGAIPSSTNVGSNTP-NH2
# modifications: disulfide 2-7
# SMILES: CC[C@H](C)[C@H](NC(=O)[C@H](C)NC(=O)CNC(=O)[C@H](Cc1ccccc1)NC(=O)[C@H](CC(N)=O)NC(=O)[C@@H]1CCCN1C(=O)[C@H](CO)NC(=O)[C@H](CO)NC(=O)[C@H](Cc1c[nH]cn1)NC(=O)[C@H](CCCNC(=N)N)NC(=O)[C@H](CC(C)C)NC(=O)[C@H](Cc1ccccc1)NC(=O)[C@H](CCC(=O)O)NC(=O)[C@H](C)NC(=O)[C@H](CC(C)C)NC(=O)[C@H](CCCNC(=N)N)NC(=O)[C@H](CCC(N)=O)NC(=O)[C@@H](NC(=O)[C@H](C)NC(=O)[C@@H]1CSSC[C@H](NC(=O)[C@H](CCCCN)NC(=O)COCCOCCNC(=O)COCCOCCNC(=O)CC[C@H](NC(=O)CCCCCCCCCCCCCCCCCCC(=O)O)C(=O)O)C(=O)N[C@@H](CC(N)=O)C(=O)N[C@@H]([C@@H](C)O)C(=O)N[C@@H](C)C(=O)N[C@@H]([C@@H](C)O)C(=O)N1)[C@@H](C)O)C(=O)N1CCC[C@H]1C(=O)N[C@@H](CO)C(=O)N[C@@H](CO)C(=O)N[C@H](C(=O)N[C@@H](CC(N)=O)C(=O)N[C@H](C(=O)NCC(=O)N[C@@H](CO)C(=O)N[C@@H](CC(N)=O)C(=O)N[C@H](C(=O)N1CCC[C@H]1C(N)=O)[C@@H](C)O)C(C)C)[C@@H](C)O
# notes: also called compound 20
# B2: N^α1-[(4S)-4-carboxy-4-(19-carboxynonadecanoylamino)butanoyl]-[Arg17,Pro21,Pro27,Glu35]-h-amylin (peptide)
# peptide: KCNTATCATQRLANFLRHSSPNFGAIPSSTNVGSETY
# modifications: C20 diacid-gGlu on the alpha amino group of the N-terminal residue; disulfide bridge Cys2-Cys7; C-terminal amide
# notes: also called compound 23
# B3: N^α1-[(4S)-4-carboxy-4-(19-carboxynonadecanoylamino)butanoyl]-[Glu14,Arg17,Pro21,Pro27,Asp35,Pro37]-h-amylin (peptide)
# peptide: {C20 diacid-γGlu}-KCNTATCATQRLAEFLRHSSPNFGAIPSSTNVGSDTP-NH2
# modifications: disulfide 2-7
# SMILES: CC[C@H](C)[C@H](NC(=O)[C@H](C)NC(=O)CNC(=O)[C@H](Cc1ccccc1)NC(=O)[C@H](CC(N)=O)NC(=O)[C@@H]1CCCN1C(=O)[C@H](CO)NC(=O)[C@H](CO)NC(=O)[C@H](Cc1c[nH]cn1)NC(=O)[C@H](CCCNC(=N)N)NC(=O)[C@H](CC(C)C)NC(=O)[C@H](Cc1ccccc1)NC(=O)[C@H](CCC(=O)O)NC(=O)[C@H](C)NC(=O)[C@H](CC(C)C)NC(=O)[C@H](CCCNC(=N)N)NC(=O)[C@H](CCC(N)=O)NC(=O)[C@@H](NC(=O)[C@H](C)NC(=O)[C@@H]1CSSC[C@H](NC(=O)[C@H](CCCCN)NC(=O)CC[C@H](NC(=O)CCCCCCCCCCCCCCCCCCC(=O)O)C(=O)O)C(=O)N[C@@H](CC(N)=O)C(=O)N[C@@H]([C@@H](C)O)C(=O)N[C@@H](C)C(=O)N[C@@H]([C@@H](C)O)C(=O)N1)[C@@H](C)O)C(=O)N1CCC[C@H]1C(=O)N[C@@H](CO)C(=O)N[C@@H](CO)C(=O)N[C@H](C(=O)N[C@@H](CC(N)=O)C(=O)N[C@H](C(=O)NCC(=O)N[C@@H](CO)C(=O)N[C@@H](CC(=O)O)C(=O)N[C@H](C(=O)N1CCC[C@H]1C(N)=O)[C@@H](C)O)C(C)C)[C@@H](C)O
# notes: also called compound 11
# B4: N^α1-[(4S)-4-carboxy-4-(19-carboxynonadecanoylamino)butanoyl]-[Arg17,Pro21,Pro27,Pro31,Glu35]-h-amylin (peptide)
# peptide: {C20 diacid-γGlu}-KCNTATCATQRLANFLRHSSPNFGAIPSSTPVGSETY-NH2
# modifications: disulfide 2-7
# SMILES: CC[C@H](C)[C@H](NC(=O)[C@H](C)NC(=O)CNC(=O)[C@H](Cc1ccccc1)NC(=O)[C@H](CC(N)=O)NC(=O)[C@@H]1CCCN1C(=O)[C@H](CO)NC(=O)[C@H](CO)NC(=O)[C@H](Cc1c[nH]cn1)NC(=O)[C@H](CCCNC(=N)N)NC(=O)[C@H](CC(C)C)NC(=O)[C@H](Cc1ccccc1)NC(=O)[C@H](CC(N)=O)NC(=O)[C@H](C)NC(=O)[C@H](CC(C)C)NC(=O)[C@H](CCCNC(=N)N)NC(=O)[C@H](CCC(N)=O)NC(=O)[C@@H](NC(=O)[C@H](C)NC(=O)[C@@H]1CSSC[C@H](NC(=O)[C@H](CCCCN)NC(=O)CC[C@H](NC(=O)CCCCCCCCCCCCCCCCCCC(=O)O)C(=O)O)C(=O)N[C@@H](CC(N)=O)C(=O)N[C@@H]([C@@H](C)O)C(=O)N[C@@H](C)C(=O)N[C@@H]([C@@H](C)O)C(=O)N1)[C@@H](C)O)C(=O)N1CCC[C@H]1C(=O)N[C@@H](CO)C(=O)N[C@@H](CO)C(=O)N[C@H](C(=O)N1CCC[C@H]1C(=O)N[C@H](C(=O)NCC(=O)N[C@@H](CO)C(=O)N[C@@H](CCC(=O)O)C(=O)N[C@H](C(=O)N[C@@H](Cc1ccc(O)cc1)C(N)=O)[C@@H](C)O)C(C)C)[C@@H](C)O
# notes: also called compound 28
# B5: N^α1-[(4S)-4-carboxy-4-(19-carboxynonadecanoylamino)butanoyl]-[Glu14,Arg17,Pro21,Pro27,Arg35]-h-amylin (peptide)
# peptide: {C20 diacid-γGlu}-KCNTATCATQRLAEFLRHSSPNFGAIPSSTNVGSRTY-NH2
# modifications: disulfide 2-7
# SMILES: CC[C@H](C)[C@H](NC(=O)[C@H](C)NC(=O)CNC(=O)[C@H](Cc1ccccc1)NC(=O)[C@H](CC(N)=O)NC(=O)[C@@H]1CCCN1C(=O)[C@H](CO)NC(=O)[C@H](CO)NC(=O)[C@H](Cc1c[nH]cn1)NC(=O)[C@H](CCCNC(=N)N)NC(=O)[C@H](CC(C)C)NC(=O)[C@H](Cc1ccccc1)NC(=O)[C@H](CCC(=O)O)NC(=O)[C@H](C)NC(=O)[C@H](CC(C)C)NC(=O)[C@H](CCCNC(=N)N)NC(=O)[C@H](CCC(N)=O)NC(=O)[C@@H](NC(=O)[C@H](C)NC(=O)[C@@H]1CSSC[C@H](NC(=O)[C@H](CCCCN)NC(=O)CC[C@H](NC(=O)CCCCCCCCCCCCCCCCCCC(=O)O)C(=O)O)C(=O)N[C@@H](CC(N)=O)C(=O)N[C@@H]([C@@H](C)O)C(=O)N[C@@H](C)C(=O)N[C@@H]([C@@H](C)O)C(=O)N1)[C@@H](C)O)C(=O)N1CCC[C@H]1C(=O)N[C@@H](CO)C(=O)N[C@@H](CO)C(=O)N[C@H](C(=O)N[C@@H](CC(N)=O)C(=O)N[C@H](C(=O)NCC(=O)N[C@@H](CO)C(=O)N[C@@H](CCCNC(=N)N)C(=O)N[C@H](C(=O)N[C@@H](Cc1ccc(O)cc1)C(N)=O)[C@@H](C)O)C(C)C)[C@@H](C)O
# notes: also called compound 16
# B6: N^α1-[(4S)-4-carboxy-4-(19-carboxynonadecanoylamino)butanoyl]-[Asp14,Arg17,Pro21,Pro27,Pro37]-h-amylin (peptide)
# peptide: {C20 diacid-γGlu}-KCNTATCATQRLADFLRHSSPNFGAIPSSTNVGSNTP-NH2
# modifications: disulfide 2-7
# SMILES: CC[C@H](C)[C@H](NC(=O)[C@H](C)NC(=O)CNC(=O)[C@H](Cc1ccccc1)NC(=O)[C@H](CC(N)=O)NC(=O)[C@@H]1CCCN1C(=O)[C@H](CO)NC(=O)[C@H](CO)NC(=O)[C@H](Cc1c[nH]cn1)NC(=O)[C@H](CCCNC(=N)N)NC(=O)[C@H](CC(C)C)NC(=O)[C@H](Cc1ccccc1)NC(=O)[C@H](CC(=O)O)NC(=O)[C@H](C)NC(=O)[C@H](CC(C)C)NC(=O)[C@H](CCCNC(=N)N)NC(=O)[C@H](CCC(N)=O)NC(=O)[C@@H](NC(=O)[C@H](C)NC(=O)[C@@H]1CSSC[C@H](NC(=O)[C@H](CCCCN)NC(=O)CC[C@H](NC(=O)CCCCCCCCCCCCCCCCCCC(=O)O)C(=O)O)C(=O)N[C@@H](CC(N)=O)C(=O)N[C@@H]([C@@H](C)O)C(=O)N[C@@H](C)C(=O)N[C@@H]([C@@H](C)O)C(=O)N1)[C@@H](C)O)C(=O)N1CCC[C@H]1C(=O)N[C@@H](CO)C(=O)N[C@@H](CO)C(=O)N[C@H](C(=O)N[C@@H](CC(N)=O)C(=O)N[C@H](C(=O)NCC(=O)N[C@@H](CO)C(=O)N[C@@H](CC(N)=O)C(=O)N[C@H](C(=O)N1CCC[C@H]1C(N)=O)[C@@H](C)O)C(C)C)[C@@H](C)O
# notes: also called compound 10
# B7: N^α1-[(4S)-4-carboxy-4-(19-carboxynonadecanoylamino)butanoyl]-[Arg17,Pro21,Pro27,Lys35]-h-amylin (peptide)
# peptide: B2 peptide with E35K
# modifications: C20 diacid-gGlu on the alpha amino group of the N-terminal residue; disulfide bridge Cys2-Cys7; C-terminal amide
# notes: also called compound 34
# B8: N^α1-[(4S)-4-carboxy-4-(19-carboxynonadecanoylamino)butanoyl]-[Arg17,Pro21,Pro27,Pro34,Glu35]-h-amylin (peptide)
# peptide: {C20 diacid-γGlu}-KCNTATCATQRLANFLRHSSPNFGAIPSSTNVGPETY-NH2
# modifications: disulfide 2-7
# SMILES: CC[C@H](C)[C@H](NC(=O)[C@H](C)NC(=O)CNC(=O)[C@H](Cc1ccccc1)NC(=O)[C@H](CC(N)=O)NC(=O)[C@@H]1CCCN1C(=O)[C@H](CO)NC(=O)[C@H](CO)NC(=O)[C@H](Cc1c[nH]cn1)NC(=O)[C@H](CCCNC(=N)N)NC(=O)[C@H](CC(C)C)NC(=O)[C@H](Cc1ccccc1)NC(=O)[C@H](CC(N)=O)NC(=O)[C@H](C)NC(=O)[C@H](CC(C)C)NC(=O)[C@H](CCCNC(=N)N)NC(=O)[C@H](CCC(N)=O)NC(=O)[C@@H](NC(=O)[C@H](C)NC(=O)[C@@H]1CSSC[C@H](NC(=O)[C@H](CCCCN)NC(=O)CC[C@H](NC(=O)CCCCCCCCCCCCCCCCCCC(=O)O)C(=O)O)C(=O)N[C@@H](CC(N)=O)C(=O)N[C@@H]([C@@H](C)O)C(=O)N[C@@H](C)C(=O)N[C@@H]([C@@H](C)O)C(=O)N1)[C@@H](C)O)C(=O)N1CCC[C@H]1C(=O)N[C@@H](CO)C(=O)N[C@@H](CO)C(=O)N[C@H](C(=O)N[C@@H](CC(N)=O)C(=O)N[C@H](C(=O)NCC(=O)N1CCC[C@H]1C(=O)N[C@@H](CCC(=O)O)C(=O)N[C@H](C(=O)N[C@@H](Cc1ccc(O)cc1)C(N)=O)[C@@H](C)O)C(C)C)[C@@H](C)O
# notes: also called compound 29
# Molecular target: T1, human calcitonin receptor
# Assay: cell-based or functional assay
Ratio hCT/hAmylin funct.,hCTR funct. EC50 [nM],Binder
3.6,0.285,B1
8.9,3.02,B2
0.9,0.112,B3
9.2,2.03,B4
6.1,2.21,B5
1,0.07,B6
8.4,2.62,B7
8.7,0.857,B8

# Molecular target: T2, human amylin receptor (amylin 3(a) …)
# Assay: cell-based or functional assay
row,hAmylin-R funct. EC50 [nM],Binder
1,0.08,B1
2,0.34,B2
3,0.12,B3
4,0.22,B4
5,0.363,B5
6,0.072,B6
7,0.313,B7
8,0.099,B8
